This data set deals with the molecule itself. Put plainly: native gel or EMSA. For orientation: Mobility shift assays separate free from complexed probe on a gel.

These results are taken from paper PMC10592209 (Neuron, 2023).

B1: acid-gated ASIC1 channel (natural protein, mouse (endogenous in brain), UniProt Q6NXK8 1-526, looked up)
chain: MELKTEEEEVGGVQPVSIQAFASSSTLHGLAHIFSYERLSLKRALWALCFLGSLAVLLCVCTERVQYYFCYHHVTKLDEVAASQLTFPAVTLCNLNEFRFSQVSKNDLYHAGELLALLNNRYEIPDTQMADEKQLEILQDKANFRSFKPKPFNMREFYDRAGHDIRDMLLSCHFRGEACSAEDFKVVFTRYGKCYTFNSGQDGRPRLKTMKGGTGNGLEIMLDIQQDEYLPVWGETDETSFEAGIKVQIHSQDEPPFIDQLGFGVAPGFQTFVSCQEQRLIYLPSPWGTCNAVTMDSDFFDSYSITACRIDCETRYLVENCNCRMVHMPGDAPYCTPEQYKECADPALDFLVEKDQEYCVCEMPCNLTRYGKELSMVKIPSKASAKYLAKKFNKSEQYIGENILVLDIFFEVLNYETIEQKKAYEIAGLLGDIGGQMGLFIGASILTVLELFDYAYEVIKHRLCRRGKCQKEAKRNSADKGVALSLDDVKRHNPCESLRGHPAGMTYAANILPHHPARGTFEDFTC
With B1, the stoichiometry N (in general, the number of molecules, sites or subunits per partner or assembly) is 3.

B2: voltage-gated HCN1 channel (natural protein, mouse (endogenous in brain), UniProt O88704 1-910, looked up)
chain: MEGGGKPNSASNSRDDGNSVFPSKAPATGPVAADKRLGTPPGGGAAGKEHGNSVCFKVDGGGGEEPAGSFEDAEGPRRQYGFMQRQFTSMLQPGVNKFSLRMFGSQKAVEKEQERVKTAGFWIIHPYSDFRFYWDLIMLIMMVGNLVIIPVGITFFTEQTTTPWIIFNVASDTVFLLDLIMNFRTGTVNEDSSEIILDPKVIKMNYLKSWFVVDFISSIPVDYIFLIVEKGMDSEVYKTARALRIVRFTKILSLLRLLRLSRLIRYIHQWEEIFHMTYDLASAVVRIFNLIGMMLLLCHWDGCLQFLVPLLQDFPPDCWVSLNEMVNDSWGKQYSYALFKAMSHMLCIGYGAQAPVSMSDLWITMLSMIVGATCYAMFVGHATALIQSLDSSRRQYQEKYKQVEQYMSFHKLPADMRQKIHDYYEHRYQGKIFDEENILSELNDPLREEIVNFNCRKLVATMPLFANADPNFVTAMLSKLRFEVFQPGDYIIREGAVGKKMYFIQHGVAGVITKSSKEMKLTDGSYFGEICLLTKGRRTASVRADTYCRLYSLSVDNFNEVLEEYPMMRRAFETVAIDRLDRIGKKNSILLQKFQKDLNTGVFNNQENEILKQIVKHDREMVQAIPPINYPQMTALNCTSSTTTPTSRMRTQSPPVYTATSLSHSNLHSPSPSTQTPQPSAILSPCSYTTAVCSPPIQSPLATRTFHYASPTASQLSLMQQPQQQLPQSQVQQTQTQTQQQQQQQQQQQQQQQQQQQQQQQQQQQQQQQQQQQQQPQTPGSSTPKNEVHKSTQALHNTNLTKEVRPLSASQPSLPHEVSTLISRPHPTVGESLASIPQPVAAVHSTGLQAGSRSTVPQRVTLFRQMSSGAIPPNRGVPPAPPPPAAVQRESPSVLNTDPDAEKPRFASNL
As to B2, the “stoichiometry N” value was found to be 4.
